This note sets out measurements from article PMC12711160 (Chemmedchem, 2025).

In series [1] the target is human neuropeptide Y (NPY) receptor type 1 (hY1R), in stably transfected COS-7 cells (human) (UniProt P25929).
For series [2], the target named is human neuropeptide Y receptor type 4 (hY4R), in stably transfected COS-7 cells (human) (UniProt P50391).
Series [3] concerns ERα. The series can be described thus: Luciferase reporter gene assay, HEK293 cells expressing hY1R-eYFP, ERα-pEGFP and 3xERE-TATA-luciferase. The class given is cell-based. The settings on record: ERα and ERE-luciferase, stimulation 24 h, normalized to 4-OHT, at least three independent experiments, n. d. = could not be determined. From the text:
B) ERα‐pEGFP and TATA‐luciferase.
Therefore, we tested HEK293 cells that transiently express hY1R, ERα, and an ERα activity‐dependent luciferase. ERα forms dimers and translocates into the nucleus upon activation, where it binds to the estrogen response element (ERE) upstream of the luciferase gene and induces luciferase expression.
Background: A reporter such as luciferase makes a cellular process visible.

Series [4] concerns ERα. The series can be described thus: Luciferase reporter gene assay, control HEK293 cells expressing only ERα-pEGFP and TATA-luciferase (w/o hY1R). The following applies: read-out: EC50 luciferase reporter gene assay, w/o hY1R; HEK293 cells expressing ERα and ERE-luciferase but not hY1R; stimulation 24 h; normalized to 4-OHT; n. d. = could not be determined.
Protocol: Values were normalized to the native ligands (NPY for hY1R and hY2R, hPP for hY4R). Data points represent mean ± SEM from n ≥ 2 independent experiments with technical triplicates. Luciferase reporter gene assay in transiently transfected HEK293‐cells expressing hY1R‐eYFP. […] Data points represent mean ± SEM from n ≥ 3 independent experiments with technical triplicates. Calculated pEC50‐ and Emax‐values are shown as bar graphs.
HEK293‐cells were transiently transfected with 0.083 µg/well hY1R‐eYFP‐pVitro2, pEGFP‐c1‐ERα (kindly provided by Michael Mancini (Addgene plasmid #28230; http://n2t.net/addgene:28230; RRID:Addgene_28230))^[ [58] ^] and 3xERE‐Tata‐Luc (kindly provided by Donald McDonnell (Addgene plasmid #11354; http://n2t.net/addgene:11354; RRID:Addgene_11354))^[ [59] ^] parallel to cell seeding. For a control experiment without hY1R‐expression, pEGFP‐N1 together with pEGFP‐c1‐ERα and 3xERETata‐Luc was transfected instead. Lipofectamine2000 (Invitrogen) was used as a transfection reagent according to the manufacturer's protocol. […] Luciferase activity was detected with ONE Glo Luciferase Assay System (Promega) following the manufacturer's specifications. Each concentration was measured at least in technical triplicates and relative luminescence units (RLU) were obtained by normalization to free 4‐OH‐Tmx. Concentration response curves were calculated with Graph Pad Prism 9.
A short description of series [5]: human blood plasma/DPBS (Biowest; 1:1, v/v). The following applies: 37 °C, up to 72 h.
Series [6] has as its target human neuropeptide Y (NPY) receptor type 1 (hY1R), in stably transfected COS-7 cells (human) (UniProt P25929). The source holds these as a separate data set.
Series [7] has as its target human neuropeptide Y receptor type 4 (hY4R), in stably transfected COS-7 cells (human) (UniProt P50391). This is another data set of the same source.
Series [8] in a line: DMEM/Ham‘s w/o FBS, pH = 7.04.
Series [9] can be described thus: DMEM/Ham‘s with 15% FBS, pH = 8.01.
Series [10] is described as follows: luciferase reporter gene assay medium (DMEM/Ham‘s w/o phenolred, w/o FBS, pH = 7.41).
Series [11] concerns the target human neuropeptide Y receptor type 5 (hY5R), in stably transfected COS-7 cells (human) (UniProt Q15761).
The target is the same in series [12]. This is another data set of the same source.
The target of a further series is hY4R‐eYFP (human) (UniProt P50391).
hY4R‐eYFP (human), sequence (P50391 whole entry): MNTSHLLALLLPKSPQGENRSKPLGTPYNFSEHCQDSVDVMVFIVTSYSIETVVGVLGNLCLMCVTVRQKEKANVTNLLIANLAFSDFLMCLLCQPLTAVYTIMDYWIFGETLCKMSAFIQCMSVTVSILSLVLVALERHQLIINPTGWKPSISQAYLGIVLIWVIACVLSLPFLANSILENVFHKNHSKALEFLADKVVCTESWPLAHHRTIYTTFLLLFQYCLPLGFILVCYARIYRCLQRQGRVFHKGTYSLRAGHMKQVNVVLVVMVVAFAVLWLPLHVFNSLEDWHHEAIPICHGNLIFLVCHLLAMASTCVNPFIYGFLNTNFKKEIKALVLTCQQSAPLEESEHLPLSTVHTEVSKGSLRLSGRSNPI

“Also recorded” adds a separate entry of the source.

human neuropeptide Y (NPY) receptor type 1 (hY1R), in stably transfected COS-7 cells (human), sequence (P25929 whole entry): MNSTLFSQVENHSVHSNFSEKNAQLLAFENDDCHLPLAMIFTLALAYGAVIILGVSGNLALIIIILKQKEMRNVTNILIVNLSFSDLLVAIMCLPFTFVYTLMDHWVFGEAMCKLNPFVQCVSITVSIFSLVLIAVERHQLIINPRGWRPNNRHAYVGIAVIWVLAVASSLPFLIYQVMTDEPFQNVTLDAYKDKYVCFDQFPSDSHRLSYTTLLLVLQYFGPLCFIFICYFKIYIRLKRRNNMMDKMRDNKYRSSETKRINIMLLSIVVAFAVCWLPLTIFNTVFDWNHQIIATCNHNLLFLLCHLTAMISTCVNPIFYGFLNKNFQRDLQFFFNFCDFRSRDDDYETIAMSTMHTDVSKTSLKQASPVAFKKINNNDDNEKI
human neuropeptide Y receptor type 4 (hY4R), in stably transfected COS-7 cells (human), sequence (P50391 whole entry): as the sequence (P50391 whole entry) above
human neuropeptide Y receptor type 5 (hY5R), in stably transfected COS-7 cells (human), sequence (Q15761 whole entry): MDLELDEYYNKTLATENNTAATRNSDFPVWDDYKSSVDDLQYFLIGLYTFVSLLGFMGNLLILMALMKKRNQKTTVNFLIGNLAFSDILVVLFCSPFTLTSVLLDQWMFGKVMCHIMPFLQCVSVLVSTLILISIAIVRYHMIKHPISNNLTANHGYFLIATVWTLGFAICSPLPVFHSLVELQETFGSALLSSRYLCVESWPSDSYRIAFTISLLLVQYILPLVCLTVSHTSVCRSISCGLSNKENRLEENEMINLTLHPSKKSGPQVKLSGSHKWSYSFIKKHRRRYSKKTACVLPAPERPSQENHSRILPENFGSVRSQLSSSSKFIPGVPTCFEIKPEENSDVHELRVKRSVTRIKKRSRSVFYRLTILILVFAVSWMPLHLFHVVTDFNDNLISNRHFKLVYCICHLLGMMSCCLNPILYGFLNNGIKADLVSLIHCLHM

As for “4‐OHT conjugate 1 of [F^7,P^34]‐pNPY (w/o linker) (peptide)”, the values for the calcium flux assay (receptor activation), EC50 in series [1] and in [2] were 0.1 nM and 0.6 nM, respectively.
With `CC/C(=C(\c1ccc(O)cc1)c1ccc(OCCN(C)C)cc1)c1ccccc1` [4‐OHT, 4‐hydroxytamoxifen], the EC50 in the series on ERα [3] is 9.4 nM; in the series with ERα [4] it was 5.8 nM.
For the molecule “YPSK(COCH2-4-OHT)PDFPGEDAPAEDLK(Tam)RYYSALRHYINLITRPRY-NH2”, the cleaved bond entry in series [5] was “R35-Y36, minor”.
Regarding “YPSK(GFL-G(13C2,15N)- COCH2-4-OHT)PDFPGEDAPA(13C3,15N)EDLARYYSALRHYINL(13C6,15N)ITRPRY-NH2”, the cleaved bond entry in [5] is recorded as “Y1-P2; also recorded: P2-S3; also recorded: Y21-S22; also recorded: L24-R25; also recorded: L30-I31; also recorded: R35-Y36”.
For the molecule [F^7,P^34]‐pNPY (peptide), the calcium flux assay (receptor activation), EC50 was determined as 0.1 nM in [1] and 0.3 nM in series [2]. Besides, the IP1 accumulation assay (G-protein activation), EC50 in [6] came to 1.2 nM; in [7] it was 0.4 nM.
For [K4(Diamine-4-OHT),F7,P34]-pNPY, the fragment found result in “DPBS, pH = 7.4” is listed as “peptide without 4-OHT”; in series [8], “peptide without 4-OHT”; in [9], “peptide without 4-OHT”; in series [10], “peptide without 4-OHT”.
“porcine neuropeptide Y (pNPY) (from UniProt P01304 10-45)”: the calcium flux assay (receptor activation), EC50 in series [11] came to 7.2 nM. The molecule further had an IP1 accumulation assay (G-protein activation), EC50 in series [12] of 3.4 nM.
Consider APLEPVYPGDNATPEQMAQYAADLRRYINMLTRPRY [human pancreatic polypeptide (hPP)], for which the calcium flux assay (receptor activation), EC50 in [2] worked out at 0.1 nM. Also, the arrestin-3 recruitment to the receptor (NanoBRET), EC50 with hY4R‐eYFP (human) worked out at 3.9 nM. The IP1 accumulation assay (G-protein activation), EC50 in [7] came out at 0.2 nM.
